Reference: paper PMC3792076, “Elucidation of Substrate Specificity in Aspergillus nidulans UDP-Galactose-4-Epimerase” (PLoS ONE, 2013)

Biological target: UDP-galactose-4-epimerase from Aspergillus nidulans (Aspergillus nidulans)
Test: crystal structure; microbatch at 277 K, 20% (w/v) PEG3350, 0.1 M Bis-Tris propane pH 7.5, 0.2 M sodium fluoride, grown with 10 mM UDP-glucose; space group C2, three monomers per asymmetric unit (one homodimer and one monomer that forms a dimer through symmetry); 2.8 Å

stoichiometry N: 2
Substance: UDP-galactose-4-epimerase from Aspergillus nidulans (enzyme)
